Experimental data reported in patent US20090203610A1, “METHODS OF TREATING OBESITY OR DIABETES USING NT-4/5” (RINAT NEUROSCIENCE CORPORATION, priority 2004, published 2009).
Positions count from the first letter of the chain named. Numbers in names are those of the source. Each block holds one molecule with its values, some of them ahead of it.

Experiments:
[1] = molecular target: T1, p75NTR (Homo sapiens, UniProt P08138); settings: low affinity receptor (LNGFR, p75NTR); cited from earlier work
T1 sequence (P08138 29-427): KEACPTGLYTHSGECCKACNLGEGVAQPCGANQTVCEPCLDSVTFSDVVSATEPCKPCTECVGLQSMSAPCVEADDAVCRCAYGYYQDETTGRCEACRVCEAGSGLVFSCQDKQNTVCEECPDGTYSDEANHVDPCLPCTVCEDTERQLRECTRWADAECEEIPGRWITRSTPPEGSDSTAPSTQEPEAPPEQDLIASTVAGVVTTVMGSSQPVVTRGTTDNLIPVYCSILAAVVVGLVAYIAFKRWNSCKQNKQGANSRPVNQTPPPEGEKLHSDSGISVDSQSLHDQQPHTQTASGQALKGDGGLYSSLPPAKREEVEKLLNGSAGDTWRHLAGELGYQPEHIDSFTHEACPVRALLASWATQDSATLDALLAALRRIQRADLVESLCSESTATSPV

[2] = molecular target: T2, human TrkC (Homo sapiens, UniProt Q16288); experiment: Receptor tyrosine phosphorylation in trkC expressing cell line; type: cell-based
T2 construct: expressed in transfected cells
From the text: (§1) Assays of TrkB specific activation by pegylated NT-4/5: Stable cell lines expressing human TrkA, TrkB or TrkC were used to determine the functional activity, i.e. receptor phosphorylation, of NT-4/5 and pegylated NT-4/5 as previously described (Sadick et al. Experimental Cell Research 234: 354-361, 1997).
as §1, with “and different forms of” for “and”

[3] = molecular target: T3, human TrkB (Homo sapiens, UniProt Q16620); experiment: Receptor tyrosine phosphorylation (KIRA) in TrkB expressing cell line; type: cell-based
T3 construct: expressed in transfected cells
From the text: Method of making pegylated NT-4/5 (S50C): The native form of NT-4/5 used in this study was produced according to the method described in U.S. Pat. No. 6,184,360. A site-directed pegylated NT-4/5 was also produced. The structure of NT-4/5 in complex with domain 5 of TrkB was examined to find amino acid side chains that would be surface available and unlikely to interfere with natural disulfide bonds and also unlikely to interfere in either the interactions between the monomer subunits of NT-4/5 or the TrkB domain 5 to create a PEG attaching site. […] […] Mutant proteins were expressed in E. coli, solubilized, extracted, purified and refolded as the native NT-4/5. To pegylate the refolded NT4-S50C, NT4-Q105C, and NT-4-E67C, first a mild reduction with 0.1 mM DTT (dithiothreitol) was performed. Excess DTT was removed by dialysis against 50 mM sodium acetate at pH 6, then a 5 molar excess of mPEG-maleimide (M. W. of 10,000 Da, SunBio, Inc., South Korea) was incubated with the protein at 37° C. for several days with gentle agitation. Pegylated protein, non-pegylated protein and unreacted PEG were separated via ion exchange or size exclusion chromatography.
as §1
as §1, with “and different forms of” for “and”

[4] = molecular target: T4, human TrkA (Homo sapiens, UniProt P04629); experiment: Receptor tyrosine phosphorylation in trkA expressing cell line; type: cell-based
T4 construct: expressed in transfected cells
From the text: as §1
as §1, with “and different forms of” for “and”

[5] = tested on: NONcNZO-10 polygenic obese mice; experiment: Pegylated NT-4/5 cysteine mutant on body weight, food intake, glucose, triglyceride in NONcNZO-10 mice (Example 6); type: in vivo; settings: single subcutaneous injection of 1 mg/kg
Experimental: Test animals: 30 male NONcNZO-10 polygenic obese mice at 10 weeks of age weighing in the range of 27-32 g were used in this study.
Administration of NT-4/5 and pegylated NT-4/5: The mice were divided into 4 groups of equivalent body weight distribution (7-8 mice per group). Each group received on the first day (day 1) of the study one and the only dose of either vehicle alone, 1 mg/kg of NT-4/5 or 1 mg/kg of PEG-NT4-S50C, respectively. A final group received a daily subcutaneous dose of 1 mg/kg of NT-4/5 from day 1 to day 5, then from day 7 to day 9. On day 9 after the treatment started, blood samples were collected to determine serum glucose and triglyceride levels. Body weight and food intake were monitored 5 days a week through out the entire study.

[6] = tested on: db/db mice; experiment: Body weight after single injection of NT-4/5 or pegylated NT-4/5 in db/db mice (Example 7, Table 21); type: in vivo; settings: for Body weight expressed in percentage of baseline value: single 5 mg/kg dose on day 1
Experimental: (§2) Test animals: 30 female db/db mice at 7 weeks of age weighing in the range of 27-34 g were used in this study.
(§3) Administration of NT-4/5 and pegylated NT-4/5: Wild type NT-4/5 was obtained from Genentech Inc. The mice were divided into 5 groups of equivalent body weight distribution (6 mice per group). Each group received on the first day (day 1) of the study one and the only dose of either vehicle, 5 mg/kg of NT-4/5 produced as described above, 5 mg/kg of 2PEG-NT4-G1S, or 5 mg/kg of 1PEG-NT4-G1S. 2PEG-NT4-G1S represents one PEG molecule was conjugated to each NT-4/5 monomer in a NT-4/5 dimer, and 1PEG-NT4-G1S represents one PEG molecule was conjugated to only one monomer of the NT-4/5 dimer. 2PEG-NT4-G1S and 1PEG-NT4-G1S were separated by ion exchange. Four days before starting the treatment (day −4), blood samples were collected from the mice as described previously for the determination of baseline levels of serum glucose. On day 4 after the treatment started, blood samples were collected again to determine serum glucose level. Body weight and food intake were monitored 5 days a week through out the entire study.

[7] = tested on: db/db mice; experiment: Daily food intake after single injection of NT-4/5 or pegylated NT-4/5 in db/db mice (Example 7, Table 22); type: in vivo; settings: for Daily food intake: single s.c. injection 5 mg/kg, db/db mice, mean
Experimental: as §2, §3

[8] = tested on: db/db mice; experiment: Non-fasting serum glucose after single injection in db/db mice (Example 7); type: in vivo; settings: after 4 days; single subcutaneous injection, 5 mg/kg
Experimental: as §2, §3

[9] = tested on: DIO mice; experiment: Weekly intravenous pegylated G1S NT-4/5 versus WT NT-4/5 on body weight and food intake in DIO mice (Example 8); type: in vivo
From the text: (§4) Test animals: Mice with diet induced obesity (DIO) were used in this study. 29 male C57BL/6J mice were weaned at 4 weeks of age. Immediately after weaning, they were put on 58% high fat diet (D12331i, Research Diet) through out the study. The DIO mice at 13 weeks of age weighing in the range of 28-40 g were used in this study.
Administration of NT-4/5 and pegylated NT-4/5: NT-4/5 was obtained from Genentech Inc. or produced as described in U.S. Pat. No. 6,184,360. Pegylated NT-4/5 was produced as follows: A mutation was introduced by changing the glycine 1 position of mature human NT-4/5 sequence to serine, resulting in a mutant form of NT-4/5 (NT4-G1S). NT4-G1S protein was expressed in E. coli, solubilized, extracted, purified and refolded as described above. Refolded NT4-G1S was dialyzed into 50 mM sodium phosphate buffer at pH 6.8 and treated with 1.5 molar excess sodium meta-periodate for 10 minutes to oxidize the N-terminal serine (or threonine) residue to an aldehyde. Remaining periodate was removed by dialysis against 30 mM sodium acetate at pH 4.5. The exact concentration of NT4-G1S was determined and a 2 to 4 fold molar excess of 20K-m-PEG-HZ (methoxy polyethylene glycol hydrazide) was added. The reaction was incubated at 37° C. for several days with gentle agitation. Unconjugated PEG, pegylated NT4-G1S and non-pegylated NT4-G1S were separated via ion exchange or size exclusion chromatography.
The mice were divided into 3 groups of equivalent body weight and baseline blood glucose distribution (7-8 mice per group). Each group received four weekly intravenous doses (on day 1, 8, 15 and 22) of either vehicle, 2 mg/kg of NT-4/5 or 2 mg/kg of pegylated G1S NT-4/5 respectively. Body weight and food intake were monitored 5 days per week through out the entire study.

[10] = tested on: DIO mice; experiment: NT-4/5 versus BDNF on body weight and food intake of DIO mice (Example 10); type: in vivo; settings: 2 mg/kg i.v.
From the text: as §4, with “22” for “29”, “weaning” for “weaning,”
Administration of NT-4/5 and BDNF: NT-4/5 was produced was produced as described in U.S. Pat. No. 6,184,360. The recombinant human BDNF was obtained from PeproTech Inc. (Rocky Hill, N.J.).
The mice were divided into 3 groups of equivalent body weight distribution (7-8 mice per group). Each group received 2 weekly intravenous doses of either vehicle, 2 mg/kg of NT-4/5 or 2 mg/kg of BDNF, respectively. Body weight and food intake were taken the day before treatment started (day 0) and followed subsequently on a daily basis.

[11] = single subcutaneous injection, 5 mg/kg, significantly

T2 sequence (Q16288 32-839): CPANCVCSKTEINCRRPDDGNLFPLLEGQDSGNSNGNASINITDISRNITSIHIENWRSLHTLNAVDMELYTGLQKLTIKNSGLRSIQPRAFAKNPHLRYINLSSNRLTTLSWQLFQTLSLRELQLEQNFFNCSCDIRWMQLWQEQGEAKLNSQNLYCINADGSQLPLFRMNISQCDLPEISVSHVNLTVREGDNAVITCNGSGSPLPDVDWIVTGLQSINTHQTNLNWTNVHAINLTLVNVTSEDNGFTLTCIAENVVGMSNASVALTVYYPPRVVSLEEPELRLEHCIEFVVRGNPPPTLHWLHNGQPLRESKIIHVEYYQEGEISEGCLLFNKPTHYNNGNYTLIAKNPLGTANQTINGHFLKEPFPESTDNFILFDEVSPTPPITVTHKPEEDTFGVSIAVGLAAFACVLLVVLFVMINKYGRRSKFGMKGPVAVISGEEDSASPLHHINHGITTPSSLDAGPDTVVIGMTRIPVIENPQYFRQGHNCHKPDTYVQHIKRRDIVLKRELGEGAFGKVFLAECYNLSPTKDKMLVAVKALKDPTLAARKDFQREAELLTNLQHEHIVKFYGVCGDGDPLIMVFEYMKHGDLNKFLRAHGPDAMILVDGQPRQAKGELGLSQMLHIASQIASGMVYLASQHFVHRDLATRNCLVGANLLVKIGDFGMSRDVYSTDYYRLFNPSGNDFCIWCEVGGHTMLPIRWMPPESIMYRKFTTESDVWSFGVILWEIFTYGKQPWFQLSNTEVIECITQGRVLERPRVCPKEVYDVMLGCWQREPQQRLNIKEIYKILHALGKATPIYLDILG
T4 sequence (P04629 33-796): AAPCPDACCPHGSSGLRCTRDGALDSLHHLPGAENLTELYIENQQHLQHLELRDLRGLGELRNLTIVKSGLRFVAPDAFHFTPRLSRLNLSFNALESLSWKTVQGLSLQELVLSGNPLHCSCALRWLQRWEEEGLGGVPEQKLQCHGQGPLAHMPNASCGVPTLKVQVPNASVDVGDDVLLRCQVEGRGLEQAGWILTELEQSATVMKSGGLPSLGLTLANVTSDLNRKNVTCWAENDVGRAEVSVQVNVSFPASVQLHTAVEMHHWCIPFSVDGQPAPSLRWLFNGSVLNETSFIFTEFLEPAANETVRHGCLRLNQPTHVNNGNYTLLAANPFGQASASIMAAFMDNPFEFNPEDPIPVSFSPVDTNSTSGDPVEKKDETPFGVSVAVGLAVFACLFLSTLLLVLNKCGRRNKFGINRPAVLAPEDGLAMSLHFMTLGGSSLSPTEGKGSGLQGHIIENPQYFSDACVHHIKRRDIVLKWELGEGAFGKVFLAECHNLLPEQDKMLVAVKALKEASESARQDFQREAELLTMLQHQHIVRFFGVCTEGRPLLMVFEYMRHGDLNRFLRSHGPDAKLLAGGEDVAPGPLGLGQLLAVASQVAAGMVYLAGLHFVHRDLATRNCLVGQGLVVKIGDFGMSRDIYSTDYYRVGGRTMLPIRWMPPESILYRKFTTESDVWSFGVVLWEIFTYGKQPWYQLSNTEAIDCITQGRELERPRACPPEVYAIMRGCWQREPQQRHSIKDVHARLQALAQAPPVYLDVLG
T3 sequence (Q16620 32-822): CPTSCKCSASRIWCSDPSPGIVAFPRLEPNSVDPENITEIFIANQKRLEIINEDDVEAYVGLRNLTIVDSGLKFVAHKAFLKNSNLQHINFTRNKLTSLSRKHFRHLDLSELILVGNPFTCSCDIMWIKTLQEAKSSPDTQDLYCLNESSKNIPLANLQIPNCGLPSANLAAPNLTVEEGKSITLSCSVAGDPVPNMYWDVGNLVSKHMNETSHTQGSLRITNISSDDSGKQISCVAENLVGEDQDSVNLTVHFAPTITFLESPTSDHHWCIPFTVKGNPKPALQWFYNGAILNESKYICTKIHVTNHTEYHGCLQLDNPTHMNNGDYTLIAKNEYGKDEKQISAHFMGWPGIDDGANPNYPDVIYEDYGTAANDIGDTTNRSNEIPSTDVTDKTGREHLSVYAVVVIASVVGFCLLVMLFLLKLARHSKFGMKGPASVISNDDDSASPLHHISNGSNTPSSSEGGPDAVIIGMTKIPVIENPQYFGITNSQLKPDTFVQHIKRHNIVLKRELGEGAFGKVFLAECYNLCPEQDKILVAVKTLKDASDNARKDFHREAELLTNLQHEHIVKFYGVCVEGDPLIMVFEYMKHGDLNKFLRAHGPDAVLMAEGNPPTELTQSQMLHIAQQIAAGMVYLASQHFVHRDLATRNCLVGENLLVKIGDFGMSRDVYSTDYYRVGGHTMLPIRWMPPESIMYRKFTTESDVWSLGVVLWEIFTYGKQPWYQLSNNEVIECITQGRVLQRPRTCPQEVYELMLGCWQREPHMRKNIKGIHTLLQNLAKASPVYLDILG

Molecule: NGF: nerve growth factor, control [reference compound]
Kd [1]: 2 nM

receptor tyrosine phosphorylation of trkC-expressing cell line [2]: activated trkC expressing cells
Molecule: NT-3: neurotrophin-3, control activating trkC expressing cells [reference compound]
Kd [1]: 2 nM

B1: PEG-NT4-S50C: human NT-4/5 with serine 50 changed to cysteine, pegylated with mPEG-maleimide (10,000 Da) (conjugate)
chain: GVSETAPASRRGELAVCDAVSGWVTDRRTAVDLRGREVEVLGEVPAAGGCPLRQYFFETRCKADNAEEGGPGAGGGGCRGVDRRHWVSECKAKQSYVRALTADAQGRVGWRWIRIDTACVCTLLSRTGRA
receptor tyrosine phosphorylation of TrkB-expressing cell line [3]: increased receptor tyrosine phosphorylation | receptor tyrosine phosphorylation of trkA-expressing cell line [4]: did not increase receptor tyrosine phosphorylation | receptor tyrosine phosphorylation of trkC-expressing cell line [2]: did not increase receptor tyrosine phosphorylation | body weight [5]: significantly reduced | food intake [5]: significantly reduced | blood glucose level ([5]; day 9): did not significantly reduce | triglyceride level ([5]; day 9): did not significantly reduce

B2: 1PEG-NT4-G1S: NT4-G1S dimer with one 20 kDa PEG molecule conjugated to only one monomer (conjugate)
chain 1: B1 chain with G1S, C50S
chain 2: B1 chain with G1S, C50S
receptor tyrosine phosphorylation of TrkB-expressing cell line [3]: increased receptor tyrosine phosphorylation | receptor tyrosine phosphorylation of trkA-expressing cell line [4]: did not increase receptor tyrosine phosphorylation | receptor tyrosine phosphorylation of trkC-expressing cell line [2]: did not increase receptor tyrosine phosphorylation | Body weight expressed in percentage of baseline value ([6]; Day 1): 100.0 % of baseline | Body weight expressed in percentage of baseline value ([6]; Day 2): 98.2 % of baseline | Body weight expressed in percentage of baseline value ([6]; Day 3): 100.0 % of baseline | Body weight expressed in percentage of baseline value ([6]; Day 4): 103.0 % of baseline | body weight growth [6, 11]: reduced the body weight growth | Daily food intake ([7]; Day 1): 6.8 g/day | Daily food intake ([7]; Day 2): 5.3 g/day | Daily food intake ([7]; Day 3): 6.7 g/day | Daily food intake ([7]; Day 4): 6.3 g/day | food intake [7, 11]: reduced | non-fasting serum glucose levels [8]: showed a tendency to reduce

B3: pegylated G1S NT-4/5: NT4-G1S (glycine 1 to serine) pegylated with 20K-m-PEG-HZ; 1PEG or 2PEG form not stated (conjugate, UniProt P34130 81-210, looked up, variant G1S)
Neurotrophin-4: B1 chain with G1S, C50S
modifications: 20K-m-PEG-HZ
body weight after the first single dose ([9]; 2 mg/kg i.v.): more effective in reducing body weight | food intake after the first single dose ([9]; 2 mg/kg i.v.): more effective in reducing food intake than WT NT-4/5 | body weight, pairwise difference with the vehicle control group ([9]; 2 mg/kg i.v. on day 1, 8, 15, 22, Bonferroni posttests): significant pairwise differences | time to body weight recovery after each weekly dosing ([9]; 2 mg/kg i.v. weekly): 3 to 4 days

B4: BDNF: recombinant human brain-derived neurotrophic factor from PeproTech Inc. (protein, UniProt P23560 19-247, looked up)
Neurotrophic factor BDNF …: APMKEANIRGQGGLAYPGVRTHGTLESVNGPKAGSRGLTSLADTFEHVIEELLDEDQKVRPNEENNKDADLYTSRVMLSSQVPLEPPLLFLLEEYKNYLDAANMSMRVRRHSDPARRGELSVCDSISEWVTAADKKTAVDMSGGTVTVLEKVPVSKGQLKQYFYETKCNPMGYTKEGCRGIDKRHWNSQCRTTQSYVRALTMDSKKRIGWRFIRIDTSCVCTLTIKRGR
body weight on day 2 [10]: did not significantly reduce body weigh | food intake on day 2 [10]: did not significantly reduce food intake | Kd [1]: 2 nM
